Measured values from article PMC9427005 (Science (New York, N.y.), 2022).

B1: REGN10987 IgG1 (antibody, V domains shown)
VH: QVQLVESGGGVVQPGRSLRLSCAASGFTFSNYAMYWVRQAPGKGLEWVAVISYDGSNKYYADSVKGRFTISRDNSKNTLYLQMNSLRTEDTAVYYCASGSDYGDYLLVYWGQGTLVTVSS
VL: QSALTQPASVSGSPGQSITISCTGTSSDVGGYNYVSWYQQHPGKAPKLMIYDVSKRPSGVSNRFSGSKSGNTASLTISGLQSEDEADYYCNSLTSISTWVFGGGTKLTVL
notes: IgG1
B2: COV2-2196 IgG1 (antibody, V domains shown)
VH: QMQLVQSGPEVKKPGTSVKVSCKASGFTFMSSAVQWVRQARGQRLEWIGWIVIGSGNTNYAQKFQERVTITRDMSTSTAYMELSSLRSEDTAVYYCAAPYCSSISCNDGFDIWGQGTMVTVSS
VL: not shown
notes: IgG1
B3: ADI-58125 IgG1 (antibody, V domains shown)
VH: EVQLVESGGGLVKPGGSLRLSCAASGFTFSSYYMNWVRQAPGKGLEWVSSISEDGYSTYYPDSLKGRFTISRDSAKNSLYLQMNSLRADDTAVYYCARDFSGHTAWAGTGFEYWGQGTLVTVSS
VL: QSVLTQPPSVSGAPGQRITISCTGSSSNIGAGYDVHWYQQLPGTAPKLLIYGSSSRNSGVPDRFSGSKSGTSASLAITGLQAEDEADYYCQSYDSSLSVLYTFGTGTKVTVL
notes: IgG1
B4: S2X35 IgG (antibody, V domains shown)
VH: QVQLVQSGAEVKKPGASVKVSCKASGYTFTNYGISWVRQAPGQGLEWMGWISAYKGNTNYAQKLQGRVTMTTDTSTSTAYMELRSLRSDDTAVYYCARPDYQVLGYDFWIGYYGMDVWGQGTTVIVSS
VL: QSVLTQPPSVSGAPGQRVTISCTGSSSNIGAGYDVHWYQQLPGTAPKLLIYGNTNRPSGVPDRFSGSKSGTSASLAITGLQAEDEADYYCQSYDSSLSGSEVVFGGGTKLTVL
B5: CT-P59 IgG1 (antibody, V domains shown)
VH: QITLKESGPTLVKPTQTLTLTCSFSGFSLSTSGVGVGWIRQPPGKALEWLALIDWDDNKYHTTSLKTRLTISKDTSKNQVVLTMTNMDPVDTATYYCARIPGFLRYRNRYYYYGMDVWGQGTTVTVSS
VL: ELVLTQPPSVSAAPGQKVTISCSGSSSNIGNNYVSWYQQLPGTAPKLLIYDNNKRPSGIPDRFSGSKSGTSATLGITGLQTGDEADYYCGTWDSSLSAGVFGGGTELTVL
notes: IgG1
B6: LY-CoV016 IgG1 (antibody, V domains shown)
VH: EVQLVESGGGLVQPGGSLRLSCAASGFTVSSNYMSWVRQAPGKGLEWVSVIYSGGSTFYADSVKGRFTISRDNSMNTLFLQMNSLRAEDTAVYYCARVLPMYGDYLDYWGQGTLVTVSS
VL: not shown
notes: IgG1
B7: REGN10933 IgG1 (antibody, V domains shown)
VH: QVQLVESGGGLVKPGGSLRLSCAASGFTFSDYYMSWIRQAPGKGLEWVSYITYSGSTIYYADSVKGRFTISRDNAKSSLYLQMNSLRAEDTAVYYCARDRGTTMVPFDYWGQGTLVTVSS
VL: DIQMTQSPSSLSASVGDRVTITCQASQDITNYLNWYQQKPGKAPKLLIYAASNLETGVPSRFSGSGSGTDFTFTISGLQPEDIATYYCQQYDNLPLTFGGGTKVEIK
notes: IgG1
B8: LY-CoV555 IgG1 (antibody, V domains shown)
VH: QVQLVQSGAEVKKPGSSVKVSCKASGGTFSNYAISWVRQAPGQGLEWMGRIIPILGIANYAQKFQGRVTITADKSTSTAYMELSSLRSEDTAVYYCARGYYEARHYYYYYAMDVWGQGTAVTVSS
VL: not shown
notes: IgG1

Each binder was assayed against SARS-CoV-2 Wuhan-Hu-1 RBD for SPR binding assays (SARS-CoV-2 Wuhan-Hu-1 (NC_045512.2), UniProt P0DTC2) (assay: SPR). Conditions: both partners purified.

Row | Binder | Kd | koff | kon
1 | B1 | 12.4 nM | – | –
2 | B2 | 1.09 nM | 0.0124 s⁻¹ | 1.14e+07 M⁻¹ s⁻¹
3 | B3 | < 0.01 nM | 7.17e-08 s⁻¹ | 1.15e+06 M⁻¹ s⁻¹
4 | B4 | 0.268 nM | 0.000153 s⁻¹ | 570000 M⁻¹ s⁻¹
5 | B5 | 0.066 nM | 0.000365 s⁻¹ | 5.54e+06 M⁻¹ s⁻¹
6 | B6 | 13.8 nM | – | –
7 | B7 | 0.689 nM | 0.00364 s⁻¹ | 5.29e+06 M⁻¹ s⁻¹
8 | B8 | 1.48 nM | 0.00117 s⁻¹ | 792000 M⁻¹ s⁻¹
